Columns and labels:
SpCas9 wild type [1] = target: T1, SpCas9 wild type (Streptococcus pyogenes, UniProt Q99ZW2 1-1368); assay: cryo-EM; 1 mM Mg2+; checkpoint state; SEC binding: 20 mM HEPES-KOH pH 7.5, 200 mM KCl, 2 mM MgCl2, room temperature, 371 pmol dCas9, 400 pmol sgRNA, 250 pmol DNA; crystal complex: 20 mM HEPES-KOH pH 7.5, 250 mM KCl, 1 mM DTT, crystals at 20 C; settings: protein: recombinant; tags: His6-MBP-TEV tag removed by TEV protease; sgRNA strand 1; TS/NTS duplex with internal mismatched region; 18 nt guide-TS complementarity
SpCas9 wild type [2] = target: T1, SpCas9 wild type; assay: cryo-EM; 10 mM Mg2+; catalytically active state, TS and NTS cleaved; SEC binding: 20 mM HEPES-KOH pH 7.5, 200 mM KCl, 2 mM MgCl2, room temperature, 371 pmol dCas9, 400 pmol sgRNA, 250 pmol DNA; crystal complex: 20 mM HEPES-KOH pH 7.5, 250 mM KCl, 1 mM DTT, crystals at 20 C; settings: protein: recombinant; tags: His6-MBP-TEV tag removed by TEV protease; sgRNA strand 1; TS/NTS duplex with internal mismatched region; 18 nt guide-TS complementarity; both DNA strands cleaved in structure

T1 sequence (Q99ZW2 whole entry): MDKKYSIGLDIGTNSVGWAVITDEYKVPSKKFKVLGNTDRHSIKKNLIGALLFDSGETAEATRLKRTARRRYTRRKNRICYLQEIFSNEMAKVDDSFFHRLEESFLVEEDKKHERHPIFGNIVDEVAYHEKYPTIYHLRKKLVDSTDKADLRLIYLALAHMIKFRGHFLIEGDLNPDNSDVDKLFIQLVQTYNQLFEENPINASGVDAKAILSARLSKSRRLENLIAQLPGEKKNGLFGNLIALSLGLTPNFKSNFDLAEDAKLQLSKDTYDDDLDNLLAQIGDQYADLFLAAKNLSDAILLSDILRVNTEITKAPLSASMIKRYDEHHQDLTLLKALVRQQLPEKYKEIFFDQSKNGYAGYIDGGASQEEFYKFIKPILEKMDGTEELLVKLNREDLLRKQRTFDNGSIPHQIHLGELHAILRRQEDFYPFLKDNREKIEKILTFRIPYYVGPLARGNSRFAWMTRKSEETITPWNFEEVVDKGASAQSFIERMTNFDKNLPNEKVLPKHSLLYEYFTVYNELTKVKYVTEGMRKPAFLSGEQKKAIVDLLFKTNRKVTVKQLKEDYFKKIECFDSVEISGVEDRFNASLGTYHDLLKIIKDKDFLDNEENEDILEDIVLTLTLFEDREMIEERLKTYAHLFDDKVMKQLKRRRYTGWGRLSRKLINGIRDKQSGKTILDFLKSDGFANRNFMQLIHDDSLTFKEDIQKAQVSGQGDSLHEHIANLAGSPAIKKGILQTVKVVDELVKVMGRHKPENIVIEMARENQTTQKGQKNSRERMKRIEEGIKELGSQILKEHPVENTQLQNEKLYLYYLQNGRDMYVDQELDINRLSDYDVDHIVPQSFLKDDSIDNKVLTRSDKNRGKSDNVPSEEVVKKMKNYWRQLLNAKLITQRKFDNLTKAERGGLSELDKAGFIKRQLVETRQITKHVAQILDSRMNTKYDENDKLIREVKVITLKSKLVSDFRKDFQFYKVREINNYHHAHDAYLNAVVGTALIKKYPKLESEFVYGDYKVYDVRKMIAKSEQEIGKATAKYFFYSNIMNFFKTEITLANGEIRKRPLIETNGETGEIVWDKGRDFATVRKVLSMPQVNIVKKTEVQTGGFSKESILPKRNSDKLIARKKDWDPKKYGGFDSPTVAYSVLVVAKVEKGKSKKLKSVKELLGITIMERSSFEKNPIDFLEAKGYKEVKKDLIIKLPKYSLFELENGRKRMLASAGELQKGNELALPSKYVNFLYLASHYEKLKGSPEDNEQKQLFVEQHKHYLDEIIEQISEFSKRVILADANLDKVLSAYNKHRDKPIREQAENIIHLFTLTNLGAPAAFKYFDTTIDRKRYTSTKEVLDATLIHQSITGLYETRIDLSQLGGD

Row | Binder | binding result (SpCas9 wild type [1]) | binding result (SpCas9 wild type [2])
1 | 18-nt match checkpoint: λ1 sgRNA (3-stem loop) / TS / NTS (mixed) RNA: GACGCAUAAAGAUGAGACGCGUUUUAGAGCUAGAAAUAGCAAGUUAAAAUAAGGCUAGUCCGUUAUCAACUUGAAAAAGUGGCACCGAGUCGGUGCUUUU DNA 1: CGTGATTCCAGCGTCTCATCTTTATGCGAGTGTACTCG DNA 2: CGAGTACACTATTGCGGGACGCTATTATTGGAATCACG | binds | –
2 | 18-nt match catalytic: λ1 sgRNA (3-stem loop) / TS / NTS (mixed) RNA: GACGCAUAAAGAUGAGACGCGUUUUAGAGCUAGAAAUAGCAAGUUAAAAUAAGGCUAGUCCGUUAUCAACUUGAAAAAGUGGCACCGAGUCGGUGCUUUU DNA 1: CGTGATTCCAGCGTCTCATCTTTATGCGAGTGTACTCGTCTTGC DNA 2: GCAAGACGAGTACACTCGCATAAAACGCTATTATTGGAATCACG | – | binds

— PMC9433323, “R-loop formation and conformational activation mechanisms of Cas9”
